Test results reported in US20070060518A1 (MANNKIND, published 2007).
Square brackets hold non-standard residues; d marks the D form. Ends that are not written are not given here. Phe(4-NO2) = N[C@@H](Cc1ccc([N+](=O)[O-])cc1)C(=O)O; Phe(4-F) = N[C@@H](Cc1ccc(F)cc1)C(=O)O; Phg = N[C@H](C(=O)O)c1ccccc1; Nle = CCCC[C@H](N)C(=O)O; Nva = CCC[C@H](N)C(=O)O; Abu = CC[C@H](N)C(=O)O

B1: PSMA288-297 analog with Abu at P2 (peptide)
peptide: G[Abu]PSIPVHPI
B2: PSMA288-297 analog with Nva at P2 (peptide)
peptide: G[Nva]PSIPVHPI
B3: PSMA288-297 analog with Nle at PΩ (peptide)
peptide: GLPSIPVHP[Nle]
B4: PSMA288-297 analog with Ile at P2 (peptide)
peptide: GIPSIPVHPI
B5: PSMA288-297 analog with Leu at PΩ (peptide)
peptide: GLPSIPVHPL
B6: PSMA288-297 analog with Val at P2 (peptide)
peptide: GVPSIPVHPI
B7: PSMA288-297 analog with Gln at P2 (peptide)
peptide: GQPSIPVHPI
B8: SSX2 41-49 (K41(b-(3-benzothienyl)Ala)) (peptide)
peptide: XASEKIFYV
modifications: β-(3-benzothienyl)-alanine at position 41 (P1)
B9: SSX2 41-49 (K41Y) (peptide)
peptide: YASEKIFYV
B10: SSX2 41-49 (K41F) (peptide)
peptide: FASEKIFYV
B11: SSX2 41-49 (K41(Phe-4N02)) (peptide)
peptide: [Phe(4-NO2)]ASEKIFYV
notes: also called para-nitrophenylalanine analog
B12: PSMA288-297 analog with Nva at P2 and Val at PΩ (peptide)
peptide: G[Nva]PSIPVHPV
B13: PSMA288-297 analog with Abu at P1 and Val at PΩ (peptide)
peptide: [Abu]LPSIPVHPV
B14: PSMA288-297 analog with Ala at P1 and Val at PΩ (peptide)
peptide: ALPSIPVHPV
B15: PSMA288-297 analog with Ala at P1 and Nva at PΩ (peptide)
peptide: ALPSIPVHP[Nva]
B16: PSMA288-297 analog with Val at P2 and Nva at PΩ (peptide)
peptide: GVPSIPVHP[Nva]
B17: PSMA288-297 analog with Abu at P1 and Nva at PΩ (peptide)
peptide: XLPSIPVHPX
modifications: aminobutyric acid (Abu) at P1; norvaline (Nva) at PΩ (P10)
B18: PSMA288-297 analog with Nle at P2 and Val at PΩ (peptide)
peptide: GXPSIPVHPV
modifications: norleucine (Nle) at P2
B19: SSX2 41-49 (K41F, A42V, Y48F) (peptide)
peptide: FVSEKIFFV
B20: SSX2 41-49 (K41F, A42V, I46L, Y48T) (peptide)
peptide: FVSEKLFTV
B21: SSX2 41-49 (K41F, A42V, Y48T) (peptide)
peptide: FVSEKIFTV
B22: SSX2 41-49 (K41F, A42V, E44D) (peptide)
peptide: FVSDKIFYV
B23: SSX2 41-49 (K41F, A42V, I46L, Y48S, V49A) (peptide)
peptide: FVSEKLFSA
B24: SSX2 41-49 (K41F, A42V, E44Q) (peptide)
peptide: FVSQKIFYV
B25: SSX2 41-49 (K41F, A42V, Y48S) (peptide)
peptide: FVSEKIFSV
B26: SSX2 41-49 (K41F, A42V, I46L) (peptide)
peptide: FVSEKLFYV
B27: SSX2 41-49 (K41F, A42V, Y48Phg) (peptide)
peptide: FVSEKIF[Phg]V
notes: also called FVSEKIF(Phg)V
B28: SSX2 41-49 (K41F, A42V, I46Nle) (peptide)
peptide: FVSEK[Nle]FYV
notes: also called FVSEK(Nle)FYV
B29: SSX2 41-49 (K41F, A42V, I46Nva) (peptide)
peptide: FVSEK[Nva]FYV
notes: also called FVSEK(Nva)FYV
B30: SSX2 41-49 (K41F, A42V, E44Nva) (peptide)
peptide: FVS[Nva]KIFYV
notes: also called FVS(Nva)KIFYV
B31: SSX2 41-49 (K41F, A42V, E44Nle) (peptide)
peptide: FVS[Nle]KIFYV
notes: also called FVS(Nle)KIFYV
B32: SSX2 41-49 (K41F, A42V, Y48(Phe-4F)) (peptide)
peptide: FVSEKIFXV
modifications: 4-fluorophenylalanine (Phe(4-F)) at position 48 (P8)
notes: also called FVSEKIF(Phe-4F)V
B33: SSX2 41-49 (K41F, A42V) (peptide)
peptide: FVSEKIFYV
B34: SSX2 41-49 (K41W, A42L) (peptide)
peptide: WLSEKIFYV
B35: SSX2 41-49 (K41F, A42I) (peptide)
peptide: FISEKIFYV
B36: SSX2 41-49 (K41Y, A42M) (peptide)
peptide: YMSEKIFYV
B37: SSX2 41-49 (K41W, A42M) (peptide)
peptide: WMSEKIFYV
B38: SSX2 41-49 (K41Y, A42L) (peptide)
peptide: YLSEKIFYV
B39: SSX2 41-49 (K41W, A42V) (peptide)
peptide: WVSEKIFYV
B40: PSMA288-297 analog with Sar at P1 (peptide)
peptide: XLPSIPVHPI
modifications: sarkosine (Sar, N-methylglycine) at P1
B41: PSMA288-297 analog with Abu at P1 (peptide)
peptide: XLPSIPVHPI
modifications: aminobutyric acid (Abu) at P1
notes: also called G288Abu
B42: PSMA288-297 analog with Ala at P1 (peptide)
peptide: ALPSIPVHPI
B43: PSMA288-297 analog with Thr at PΩ-1 (peptide)
peptide: GLPSIPVHTI
B44: PSMA288-297 analog with Ala at PΩ-1 (peptide)
peptide: GLPSIPVHAI
B45: PSMA288-297 analog with Ser at P1 (peptide)
peptide: SLPSIPVHPI
B46: PSMA288-297 analog with Ser at PΩ-1 (peptide)
peptide: GLPSIPVHSI
B47: PSMA288-297 analog with Leu at PΩ-1 (peptide)
peptide: GLPSIPVHLI
B48: SSX2 41-49 (K41(Phe-4F)) (peptide)
peptide: [Phe(4-F)]ASEKIFYV
B49: SSX2 41-49 (K41F, A42V, I46V) (peptide)
peptide: FVSEKVFYV
B50: SSX2 41-49 (K41F, A42V, I46L, Y48T, V49A) (peptide)
peptide: FVSEKLFTA
B51: SSX2 41-49 (K41Y, A42V) (peptide)
peptide: YVSEKIFYV
B52: PSMA288-297 analog with Ala at P1, Nva at P2 and Val at PΩ (peptide)
peptide: A[Nva]PSIPVHPV
B53: PSMA288-297 analog with Ala at P1, Nva at P2 and Trp at P3 (peptide)
peptide: A[Nva]WSIPVHPI
B54: PSMA288-297 analog with Ala at P1, Trp at P3 and Val at PΩ (peptide)
peptide: ALWSIPVHPV
B55: PSMA288-297 analog with Ala at P1, Val at P2 and Val at PΩ (peptide)
peptide: AVPSIPVHPV
B56: PSMA288-297 analog with Ala at P1, Val at P2 and Nva at PΩ (peptide)
peptide: AVPSIPVHP[Nva]
B57: PSMA288-297 analog with Ala at P1, Trp at P3 and Nva at PΩ (peptide)
peptide: ALWSIPVHP[Nva]
B58: PSMA288-297 analog with Ala at P1, Nle at P2 and Trp at P3 (peptide)
peptide: A[Nle]WSIPVHPI

The binders below were run against T1, HLA-A*0201 class I monomer on avidin-coated plates (iTopia Epitope Discovery System) (human) (assay: iTopia affinity assay (FIG. 19)).
T1 construct: Bought kit (Beckman Coulter); also called A0201 restricted MHC Class 1 molecules; MHC monomer
Excerpt: (§1) Avidin-coated microtiter plates containing class I monomer loaded with a so-called placeholder peptide were used to evaluate peptide binding, affinity and off-rate. […] Assay buffers, anti-MHC-FITC mAb and beta2-microglobulin and control peptides were also supplied with the kits. Binding Assay:

Row | binding result | Binder
1 | binds | B1
2 | binds | B2
3 | binds | B3
4 | binds | B4
5 | binds | B5
6 | binds | B6
7 | binds | B7

What follows are binders tested against T2, HLA-A*0201 on T2 cells (human) (assay: T2 cell binding assay, flow cytometry).
T2 construct: whole, on cells; also called HLA-A2

Row | EC50 | Relative affinity (1/RA) | Binder
8 | 24.1 µM | 0.6 | B8
9 | 8.74 µM | 1.7 | B9
10 | 9.55 µM | 1.5 | B10
11 | 12.8 µM | 1.1 | B11

The binders below were run against T1, HLA-A*0201 class I monomer on … (assay: iTopia off-rate assay (FIG. 20)).
Description: as §1
(§2) The plates were then incubated on the allele-specific monomer plates at 37° C. The plates were measured at multiple time points (0, 0.5, 1, 1.5, 2, 4, 6 and 8 hrs) for relative fluorescence intensity. The time required for 50% of the peptide to dissociate from the MHC monomer is defined as the T1/2 value (hrs).

Row | binding result | Binder
12 | binds | B12
13 | binds | B13
14 | binds | B14
15 | binds | B15
16 | binds | B16
17 | binds | B17
18 | binds | B18

Molecular target: T2, HLA-A*0201 on T2 cells
Experiment: T2 cell binding assay, flow cytometry
Remark: another data set of the same source

Row | EC50 | Relative affinity (1/RA) | Binder
19 | 8.8 µM | 1.7 | B19
20 | 5.67 µM | 2.6 | B20
21 | 3.9 µM | 3.8 | B21
22 | 13.2 µM | 1.1 | B22
23 | 6.2 µM | 2.4 | B23
24 | 40.8 µM | 0.4 | B24
25 | 3.8 µM | 3.9 | B25
26 | 7.8 µM | 1.9 | B26
27 | 5.85 µM | 2.5 | B27
28 | 12.8 µM |  | B28
29 | 6.21 µM | 2.4 | B29
30 | 3.8 µM | 3.9 | B30
31 | 13 µM | 1.1 | B31
32 | 10.6 µM | 1.4 | B32

Molecular target: T2, HLA-A*0201 on T2 cells
Experiment: T2 cell binding assay, flow cytometry
Remark: another data set of the same source

Row | EC50 | Relative affinity (1/RA) | Binder
33 | 4.67 µM | 3.1 | B33
34 | 4.47 µM | 3.3 | B34
35 | 5.37 µM | 2.7 | B35
36 | 25 µM | 0.6 | B36
37 | 5.13 µM | 2.9 | B37
38 | 11.8 µM | 1.2 | B38
39 | 4.82 µM | 3 | B39

Each binder was assayed against T1, HLA-A*0201 class I monomer on … (assay: iTopia assays (FIG. 19)).
Excerpt: as §1
This assay measures the ability of individual peptides to bind HLA molecules under standardized optimal binding conditions. Monomer-coated plates were first stripped, releasing the placeholder peptide and leaving only the MHC heavy chain bound to the plate. Test peptides were then introduced under optimal folding conditions, along with the anti-MHC-FITC mAb. […] The anti-MHC-FITC mAb binds preferentially to a refolded MHC complex. Therefore, the fluorescence intensity resulting from each peptide was related to the peptide's ability to form complex with MHC molecule. Each peptide's binding was evaluated relative to the positive control peptide provided in the kit, and the results were expressed “% binding”.

Row | binding result | Binder
40 | binds | B40
41 | binds | B41
42 | binds | B42
43 | binds | B43
44 | binds | B44
45 | binds | B45
46 | binds | B46
47 | binds | B47

Each binder was assayed against T2, HLA-A*0201 on T2 cells (assay: T2 cell stability assay, flow cytometry).

Row | Stability (T1/2) | Binder
48 | > 24 h | B9
49 | > 24 h | B10
50 | > 24 h | B48

Molecular target: T2, HLA-A*0201 on T2 cells
Experiment: T2 cell stability assay, flow cytometry
Remark: another data set of the same source

Row | Stability (T1/2) | Binder
51 | 24 h | B49
52 | 20 h | B19
53 | 24 h | B20
54 | 24 h | B21
55 | 12 h | B50
56 | 20 h | B25
57 | 24 h | B26
58 | > 24 h | B27
59 | > 24 h | B29
60 | > 24 h | B30
61 | 24 h | B32

Molecular target: T2, HLA-A*0201 on T2 cells
Experiment: T2 cell stability assay, flow cytometry
Remark: another data set of the same source

Row | Stability (T1/2) | Binder
62 | 24 h | B33
63 | > 24 h | B34
64 | > 24 h | B35
65 | > 24 h | B36
66 | > 24 h | B37
67 | > 24 h | B38
68 | > 24 h | B51
69 | > 24 h | B39

The binders below were run against T1, HLA-A*0201 class I monomer on … (assay: iTopia off-rate assay (FIG. 21)).
Description: as §1, §2

Row | binding result | Binder
70 | binds | B52
71 | binds | B53
72 | binds | B54
73 | binds | B55
74 | binds | B56
75 | binds | B57
76 | binds | B58
